Assay results as given in the Immune Epitope Database (IEDB).

Key:
Assay in all cases: IEDB peptide-MHC binding, purified MHC/competitive/radioactivity; filed as Kd, often an IC50 or EC50 that approximates it; ≥ and ≤ were set here for values at or beyond the usual limits of such assays
HLA-A*31:01 = biological target: HLA-A*31:01
HLA-A*11:01 = biological target: HLA-A*11:01
HLA-A*03:01 = biological target: HLA-A*03:01
HLA-A*68:01 = biological target: HLA-A*68:01
HLA-A*33:01 = biological target: HLA-A*33:01
[1] = source organism: SARS coronavirus Tor2
[2] = source organism: Vaccinia virus WR
[3] = source organism: Mammarenavirus juninense
[4] = source organism: Mammarenavirus guanaritoense

Sequence	Kd (HLA-A*31:01; [1])	Kd (HLA-A*11:01; [1])	Kd (HLA-A*03:01; [1])	Kd (HLA-A*68:01; [1])	Kd (HLA-A*33:01; [1])	Kd (HLA-A*31:01; [2])	Kd (HLA-A*11:01; [2])	Kd (HLA-A*03:01; [2])	Kd (HLA-A*68:01; [2])	Kd (HLA-A*33:01; [2])	also measured
IQFMMSRRR	0.0044 µM	0.369 µM	0.353 µM	1.49 µM	1.44 µM						
ILKKLSSIK						3.18 µM	1.09 µM	0.00469 µM	4.81 µM	1.56 µM	
LLRHYYNKR						0.00168 µM	0.833 µM	3.02 µM	2.52 µM	0.0513 µM	
SAQCFKMFYK	0.0268 µM	0.00459 µM	0.0184 µM	0.0305 µM	0.398 µM						
NKQYIHCFRK											Kd (HLA-A*31:01; [3]): 0.128 µM; Kd (HLA-A*11:01; [3]): 0.652 µM; Kd (HLA-A*03:01; [3]): 0.973 µM; Kd (HLA-A*68:01; [3]): 1.5 µM; Kd (HLA-A*33:01; [3]): 17.5 µM
IILSKIPYLR						0.00477 µM	0.0407 µM	0.0409 µM	0.000777 µM	0.251 µM	
IINDKGKQY						≥ 77.9 µM	8.38 µM	1.94 µM	≥ 77.7 µM	≥ 77.7 µM	
DSFLRKIGDK						3.56 µM	11.7 µM	≥ 59.1 µM	6.27 µM	1.97 µM	
MVDELVTRK						3.95 µM	0.161 µM	0.0689 µM	0.793 µM	2.03 µM	
TILDDNLYK						≥ 50.3 µM	0.0148 µM	0.39 µM	1.18 µM	≥ 77.7 µM	
KFTILEYLY						1.03 µM	2.18 µM	7.09 µM	0.808 µM	9.06 µM	
HIASKINNNR						0.959 µM	4.03 µM	1.96 µM	0.0188 µM	5.95 µM	
GANYLGKPK	1.48 µM	1.08 µM	0.51 µM	3.45 µM	≥ 77.7 µM						
IQTSVNTVVR						0.363 µM	14.2 µM	≥ 39.7 µM	1.43 µM	≥ 29.9 µM	
SIVLHIQLEH											Kd (HLA-A*31:01; [4]): 11.8 µM; Kd (HLA-A*11:01; [4]): 1.07 µM; Kd (HLA-A*03:01; [4]): 1.46 µM; Kd (HLA-A*68:01; [4]): ≥ 22.1 µM; Kd (HLA-A*33:01; [4]): 8.1 µM
KTVQFCDAMR	0.00865 µM	0.267 µM	1.79 µM	0.0901 µM	1.53 µM						
ELYDTSPTK						≥ 77.9 µM	0.0902 µM	0.0105 µM	0.00411 µM	≥ 43.5 µM	

Sequence	Kd (HLA-A*31:01; [1])	Kd (HLA-A*11:01; [1])	Kd (HLA-A*03:01; [1])	Kd (HLA-A*68:01; [1])	Kd (HLA-A*33:01; [1])	Kd (HLA-A*31:01; [2])	Kd (HLA-A*11:01; [2])	Kd (HLA-A*03:01; [2])	Kd (HLA-A*68:01; [2])	Kd (HLA-A*33:01; [2])	also measured
EVGSIRCVKY						≥ 47 µM	≥ 69.8 µM	≥ 70.1 µM	1.51 µM	≥ 47.8 µM	
FSTSAADIKR						11.1 µM	0.247 µM	18 µM	0.0165 µM	≥ 22.5 µM	
KVNSTLEQY	2.59 µM	0.445 µM	0.0588 µM	0.955 µM	≥ 50.4 µM						
EALEYLSELK						17.9 µM	0.225 µM	0.461 µM	0.105 µM	5.62 µM	
ATSRTLSYYK	0.0149 µM	0.00316 µM	0.00332 µM	0.0153 µM	6.23 µM						
AVLDMCAALK	0.0804 µM	0.00606 µM	0.0129 µM	0.117 µM	0.756 µM						
LVLLILMTAR	0.918 µM	8.74 µM	3.78 µM	6.75 µM	5.5 µM						
QLPKRGVRVR						5.38 µM	≥ 47 µM	≥ 22.6 µM	≥ 20.1 µM	≥ 70 µM	
SFSNTIQSY						≥ 77.9 µM	4.3 µM	11.7 µM	10.4 µM	≥ 77.7 µM	
AQGLVASIK	9.89 µM	0.209 µM	0.654 µM	≥ 32.6 µM	≥ 31.6 µM						
KFVFPLNSK	0.0744 µM	1.27 µM	0.17 µM	8.65 µM	≥ 53.6 µM						
STCFKLMLK	0.0265 µM	0.000553 µM	0.000808 µM	0.00165 µM	1.45 µM						
YLSTFNMWR						0.0647 µM	0.666 µM	0.201 µM	0.00342 µM	0.0945 µM	
IISEEYLSK						10.1 µM	0.027 µM	0.103 µM	7.85 µM	≥ 59.3 µM	
SSVQLSNNKY						2.87 µM	0.141 µM	4.65 µM	0.0657 µM	10.1 µM	
YVKSPKFSK	2.32 µM	0.259 µM	6.98 µM	0.0655 µM	7.52 µM						
PTFQLLNMIK						12.5 µM	0.0938 µM	9.05 µM	≥ 10 µM	≥ 70 µM	
